Key:
[1] = target: recombinant AMY3 (α-amylase3) lacking the chloroplast transit peptide, purified (Arabidopsis) (UniProt Q94A41); test: SEC-MALS + other: SAXS
cross-linking = target: the molecule itself; test: cross-linking

stoichiometry N (BAM9 per AMY3 (heterodimer)) [1] | Molecule | stoichiometry N (cross-linking)
1 | recombinant BAM9 (β-amylase9), purified (from UniProt Q8VYW2 1-536) (natural protein) | 
 | recombinant AMY3 (α-amylase3) lacking the chloroplast transit peptide, purified (enzyme, Arabidopsis, UniProt Q94A41 56-887, looked up) SMNKSPVAIRATSSDTAVVETAQSDDVIFKEIFPVQRIEKAEGKIYVRLKEVKEKNWELSVGCSIPGKWILHWGVSYVGDTGSEWDQPPEDMRPPGSIAIKDYAIETPLKKLSEGDSFFEVAINLNLESSVAALNFVLKDEETGAWYQHKGRDFKVPLVDDVPDNGNLIGAKKGFGALGQLSNIPLKQDKSSAETDSIEERKGLQEFYEEMPISKRVADDNSVSVTARKCPETSKNIVSIETDLPGDVTVHWGVCKNGTKKWEIPSEPYPEETSLFKNKALRTRLQRKDDGNGSFGLFSLDGKLEGLCFVLKLNENTWLNYRGEDFYVPFLTSSSSPVETEAAQVSKPKRKTDKEVSASGFTKEIITEIRNLAIDISSHKNQKTNVKEVQENILQEIEKLAAEAYSIFRSTTPAFSEEGVLEAEADKPDIKISSGTGSGFEILCQGFNWESNKSGRWYLELQEKADELASLGFTVLWLPPPTESVSPEGYMPKDLYNLNSRYGTIDELKDTVKKFHKVGIKVLGDAVLNHRCAHFKNQNGVWNLFGGRLNWDDRAVVADDPHFQGRGNKSSGDNFHAAPNIDHSQDFVRKDIKEWLCWMMEEVGYDGWRLDFVRGFWGGYVKDYMDASKPYFAVGEYWDSLSYTYGEMDYNQDAHRQRIVDWINATSGAAGAFDVTTKGILHTALQKCEYWRLSDPKGKPPGVVGWWPSRAVTFIENHDTGSTQGHWRFPEGKEMQGYAYILTHPGTPAVFFDHIFSDYHSEIAALLSLRNRQKLHCRSEVNIDKSERDVYAAIIDEKVAMKIGPGHYEPPNGSQNWSVAVEGRDYKVWETS | 2

Reference: paper PMC11326238 (bioRxiv, 2024)
